Laboratory results taken from doi:10.1101/2024.09.04.610228 (bioRxiv, 2024).
Ends that are not written are not given here.

Target: FOXO4 forkhead domain (FHD) (95-195) (UniProt P98177 95-195)
Experiment: fluorescence polarisation

Sequence of FOXO4 forkhead domain (FHD) (95-195) (P98177 95-195): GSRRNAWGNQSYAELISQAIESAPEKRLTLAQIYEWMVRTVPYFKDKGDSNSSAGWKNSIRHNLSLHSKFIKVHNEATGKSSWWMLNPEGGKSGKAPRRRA

Binder | Kd [nM] | fold enhancement of inhibitory ability against p53 TAD PEP [fold]
DLMLSPDDIEQWFTED (also: FITC label, position not given here) [FITC-labeled p53 TAD PEP (42-57)] | 110 | –
ALMLSPAAIAQWFTAA [CAND] | – | ~3
